Experimental data taken from article PMC5538626 (EMBO Reports, 2017).
Ends that are not written are not given here.

Legend:
Settings in all cases: both partners purified
6xHis-tagged GABARAP-L1 = target: T1, 6xHis-tagged GABARAP-L1 (human, UniProt Q9H0R8 1-117); assay: peptide or protein array; biotinylated peptides immobilised on streptavidin-coated 96-well plates, 1 uM His6-tagged mATG8 in PBS, 0.1% Tween-20, 1% BSA, 1 h at 8 C, detected with anti-His-HRP and TMB at 450 nm; expressed relative to the WT LIR peptide
T1 construct: GABARAP-L1, human; also called HIS6-GABARAP-L1; source: isolated from E. coli
T1 sequence (Q9H0R8 whole entry, looked up): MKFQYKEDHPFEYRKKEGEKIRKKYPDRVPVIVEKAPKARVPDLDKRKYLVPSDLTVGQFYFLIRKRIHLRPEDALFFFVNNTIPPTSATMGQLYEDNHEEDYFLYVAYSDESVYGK

[1] = target: T2, GABARAP (for ITC and NMR) (human, UniProt O95166 1-117); assay: ITC; peptide 0.4 mM titrated into 0.020 mM LC3/GABARAP protein in 26 steps, 25°C; 50 mM Na2HPO4, 100 mM NaCl, pH 7.0; one-site model
T2 construct: GABARAP, human; source: E. coli NEB T7 Express, purified
T2 sequence (O95166 whole entry): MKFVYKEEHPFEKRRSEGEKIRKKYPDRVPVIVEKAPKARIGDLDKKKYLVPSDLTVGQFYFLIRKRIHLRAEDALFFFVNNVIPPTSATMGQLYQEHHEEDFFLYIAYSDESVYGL

LC3B (for ITC and NMR) = LC3B (for ITC and NMR) (human, UniProt Q9GZQ8 1-120); assay: as above
[2] = target: T3, GABARAP‐L1 (for ITC and NMR) (human, UniProt Q9H0R8 1-117); assay: as above
T3 construct: GABARAP-L1, human; 15N-labelled for NMR; source: E. coli NEB T7 Express, purified
T3 sequence (Q9H0R8 whole entry): as the sequence (Q9H0R8 whole entry, looked up) above

[3] = target: T4, GABARAP‐L2 (for ITC and NMR) (human, UniProt P60520 1-117); assay: as above
T4 construct: GABARAP-L2/GATE-16, human; 15N-labelled for NMR; also called GATE‐16; source: E. coli NEB T7 Express, purified
T4 sequence (P60520 whole entry): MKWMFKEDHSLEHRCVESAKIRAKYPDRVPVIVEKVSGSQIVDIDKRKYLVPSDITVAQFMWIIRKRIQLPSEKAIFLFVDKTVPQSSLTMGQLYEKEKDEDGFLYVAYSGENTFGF

LC3C (for ITC) = target: T5, LC3C (for ITC) (human, UniProt Q9BXW4 1-126); assay: as above
T5 construct: LC3C, human; source: E. coli NEB T7 Express, purified
T5 sequence (Q9BXW4 1-126): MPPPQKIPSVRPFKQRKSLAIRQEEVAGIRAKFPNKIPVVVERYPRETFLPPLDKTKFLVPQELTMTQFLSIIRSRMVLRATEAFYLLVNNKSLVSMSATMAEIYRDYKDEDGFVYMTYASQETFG

LC3A (for ITC and NMR) = target: T6, LC3A (for ITC and NMR) (human, UniProt Q9H492 1-121); assay: as above
T6 construct: LC3A, human; 15N-labelled for NMR; also called MAP1LC3A; source: E. coli NEB T7 Express, purified

6xHis‐tagged GABARAP‐L1 = target: T7, 6xHis‐tagged GABARAP‐L1 (human, UniProt Q9H0R8 1-117); assay: ELISA; called peptide array: biotinylated peptides immobilised on streptavidin-coated 96-well plates; 1 μM His6-mATG8 in PBS, 0.1% Tween-20, 1% BSA, 1 h, 8°C; anti-His-HRP, TMB, absorbance at 450 nm
T7 construct: GABARAP-L1, human; also called His6‐GABARAP‐L1; source: E. coli, isolated
T7 sequence (Q9H0R8 whole entry, looked up): as the sequence (Q9H0R8 whole entry, looked up) above

6xHis‐tagged LC3C = target: T8, 6xHis‐tagged LC3C (human, UniProt Q9BXW4 1-126); assay: as above
T8 construct: LC3C, human; also called His6‐LC3C; source: E. coli, isolated
T8 sequence (Q9BXW4 1-126): as the sequence (Q9BXW4 1-126) above

6xHis‐tagged GABARAP‐L2 = target: T9, 6xHis‐tagged GABARAP‐L2 (human, UniProt P60520 1-117); assay: as above
T9 construct: GABARAP-L2/GATE-16, human; also called His6‐GABARAP‐L2; GATE‐16; source: E. coli, isolated
T9 sequence (P60520 whole entry): as the sequence (P60520 whole entry) above

6xHis‐tagged GABARAP = target: T10, 6xHis‐tagged GABARAP (human, UniProt O95166 1-117); assay: as above
T10 construct: GABARAP, human; also called His6‐GABARAP; source: E. coli, isolated
T10 sequence (O95166 whole entry): as the sequence (O95166 whole entry) above

6xHis‐tagged LC3B = 6xHis‐tagged LC3B (human, UniProt Q9GZQ8 1-120); assay: as above
6xHis‐tagged LC3A = target: T11, 6xHis‐tagged LC3A (human, UniProt Q9H492 1-121); assay: as above
T11 construct: LC3A (MAP1LC3A), human; also called His6‐LC3A; MAP1LC3A; source: E. coli, isolated

LC3B K30R = LC3B K30R (human, UniProt Q9GZQ8 1-120, K30R); assay: ITC; peptide at 0.4 mM titrated into 0.020 mM LC3B or GABARAP protein in 26 steps, 25 C, VP-ITC, one-site model; 50 mM Na2HPO4, 100 mM NaCl, pH 7.0
GABARAP R28K = target: T12, GABARAP R28K (human, UniProt O95166 1-117, R28K); assay: as above
T12 construct: GABARAP, human, with R28K; also called GABARAP R28K mutant
T12 sequence (O95166 whole entry R28K): as the sequence (O95166 whole entry) above, with R28K counted along it

6xHis-tagged GABARAP = target: T13, 6xHis-tagged GABARAP (human, UniProt O95166 1-117); assay: peptide or protein array; biotinylated peptides immobilised on streptavidin-coated 96-well plates, 1 uM His6-tagged mATG8 in PBS, 0.1% Tween-20, 1% BSA, 1 h at 8 C, detected with anti-His-HRP and TMB at 450 nm; expressed relative to the WT LIR peptide
T13 construct: GABARAP, human; also called HIS6-GABARAP; source: isolated from E. coli
T13 sequence (O95166 whole entry): as the sequence (O95166 whole entry) above

B1: Biotinylated PLEKHM1-LIR V636L peptide (peptide)
peptide: EDEWLNVQY
modifications: also: biotinylated, position not given here
notes: also called V636X with X = L; L in position X1; source: synthetic peptide, bought: JPT, Germany
binding result (6xHis-tagged GABARAP-L1): binds

B2: PLEKHM1‐LIR W635A peptide (ITC) (peptide)
chain: PQQEDEAVNVQYPD
modifications: limits taken from the WT ITC peptide (P629-D642); N-terminal GAMG cloning remnant, printed only for WT, left out
Ka [1]: 10000 M⁻¹
Kd [1]: > 100 µM
dH [1]: -1.1 ± 0.1 kcal/mol

B3: PLEKHM1‐LIR peptide (GAMG‐P^629QQEDEWVNVQYPD^642) (peptide)
peptide: GAMGPQQEDEWVNVQYPD
notes: cloning artefact left after TEV cleavage; PLEKHM1 LIR, residues 629-642; 13C,15N- or 15N-labelled for some NMR experiments; also called PLEKHM1‐LIR WT; source: E. coli NEB T7, as Ub63 fusion, TEV-cleaved, purified (Ni-NTA, reverse Ni-NTA, gel filtration)
Ka [1]: 1.8e+06 M⁻¹
Kd [1]: 0.55 µM
dH [1]: -10.6 ± 0.1 kcal/mol
stoichiometry N [1]: 1 ± 0.01
Ka (LC3B (for ITC and NMR)): 160000 M⁻¹
Kd (LC3B (for ITC and NMR)): 6.33 µM
dH (LC3B (for ITC and NMR)): -5.8 ± 0.2 kcal/mol
stoichiometry N (LC3B (for ITC and NMR)): 1.06 ± 0.01
Ka [2]: 1.3e+06 M⁻¹
Kd [2]: 770 nM
dH [2]: -7.8 ± 0.1 kcal/mol
stoichiometry N [2]: 1 ± 0.01
Ka [3]: 1.07e+06 M⁻¹
Kd [3]: 930 nM
dH [3]: -6.1 ± 0.1 kcal/mol
stoichiometry N [3]: 1.05 ± 0.01
Ka (LC3C (for ITC)): 290000 M⁻¹
Kd (LC3C (for ITC)): 3.45 µM
dH (LC3C (for ITC)): -8.3 ± 0.2 kcal/mol
stoichiometry N (LC3C (for ITC)): 0.99 ± 0.02
Ka (LC3A (for ITC and NMR)): 240000 M⁻¹
Kd (LC3A (for ITC and NMR)): 4.22 µM
dH (LC3A (for ITC and NMR)): -7 ± 0.2 kcal/mol
stoichiometry N (LC3A (for ITC and NMR)): 0.98 ± 0.02

B4: PLEKHM1‐LIR V638I peptide (biotinylated 9-mer) (peptide, UniProt Q9Y4G2 632-640, looked up)
peptide: EDEWVNIQY
modifications: also: biotinylated
notes: PLEKHM1 LIR; source: bought: JPT (biotinylated peptide)
binding result (6xHis‐tagged GABARAP‐L1): binds
binding result (6xHis‐tagged LC3C): binds
binding result (6xHis‐tagged GABARAP‐L2): binds
binding result (6xHis‐tagged GABARAP): binds
binding result (6xHis‐tagged LC3B): binds
binding result (6xHis‐tagged LC3A): binds

B5: PLEKHM1-LIR peptide (GAMG-P629QQEDEWVNVQYPD642) (peptide)
peptide: GAMGPQQEDEWVNVQYPD
notes: cloning artefact left after TEV cleavage; PLEKHM1, LIR region, residues 629-642; Used non-labelled in ITC and in the LC3C co-crystal, 15N-labelled in the NMR titrations with non-labelled proteins; The Appendix (D1:p2) calls the ITC peptide 'synthetic', the methods describe the recombinant preparation; also called PLEKHM1-LIR WT; PLEKHM1 629-642; source: E. coli NEB T7, expressed as …
Ka (LC3B K30R): 190000 M⁻¹
Kd (LC3B K30R): 5.26 µM
stoichiometry N (LC3B K30R): 1.11 ± 0.02
Ka (GABARAP R28K): 1.9e+06 M⁻¹
Kd (GABARAP R28K): 540 nM
stoichiometry N (GABARAP R28K): 1.05 ± 0.01

B6: Biotinylated PLEKHM1-LIR V636I peptide (peptide, UniProt Q9Y4G2 632-640, looked up)
peptide: EDEWINVQY
modifications: also: biotinylated, position not given here
notes: also called V636X with X = I; I in position X1; source: synthetic peptide, bought: JPT, Germany
binding result (6xHis-tagged GABARAP): binds

B7: PLEKHM1‐LIR V636G peptide (ITC) (peptide)
chain: PQQEDEWGNVQYPD
modifications: limits taken from the WT ITC peptide (P629-D642); N-terminal GAMG cloning remnant, printed only for WT, left out
Ka [1]: 20000 M⁻¹
Kd [1]: 52 µM
dH [1]: -7.5 ± 0.1 kcal/mol
